B1: Shugoshin 2 (Homo sapiens), Q562F6 (parent)
chain: MECPVMETGSLFTSGIKRHLKDKRISKTTKLNVSLASKIKTKILNNSSIFKISLKHNNRALAQALSREKENSRRITTEKMLLQKEVEKLNFENTFLRLKLNNLNKKLIDIEALMNNNLITAIEMSSLSEFHQSSFLLSASKKKRISKQCKLMRLPFARVPLTSNDDEDEDKEKMQCDNNIKSKTLPDIPSSGSTTQPLSTQDNSEVLFLKENNQNVYGLDDSEHISSIVDVPPRESHSHSDQSSKTSLMSEMRNAQSIGRRWEKPSPSNVTERKKRGSSWESNNLSADTPCATVLDKQHISSPELNCNNEINGHTNETNTEMQRNKQDLPGLSSESAREPNAECMNQIEDNDDFQLQKTVYDADMDLTASEVSKIVTVSTGIKKKSNKKTNEHGMKTFRKVKDSSSEKKRERSKRQFKNSSDVDIGEKIENRTERSDVLDGKRGAEDPGFIFNNEQLAQMNEQLAQVNELKKMTLQTGFEQGDRENVLCNKKEKRITNEQEETYSLSQSSGKFHQESKFDKGQNSLTCNKSKASRQTFVIHKLEKDNLLPNQKDKVTIYENLDVTNEFHTANLSTKDNGNLCDYGTHNILDLKKYVTDIQPSEQNESNINKLRKKVNRKTEIISGMNHMYEDNDKDVVHGLKKGNFFFKTQEDKEPISENIEVSKELQIPALSTRDNENQCDYRTQNVLGLQKQITNMYPVQQNESKVNKKLRQKVNRKTEIISEVNHLDNDKSIEYTVKSHSLFLTQKDKEIIPGNLEDPSEFETPALSTKDSGNLYDSEIQNVLGVKHGHDMQPACQNDSKIGKKPRLNVCQKSEIIPETNQIYENDNKGVHDLEKDNFFSLTPKDKETISENLQVTNEFQTVDLLIKDNGNLCDYDTQNILELKKYVTDRKSAEQNESKINKLRNKVNWKTEIISEMNQIYEDNDKDAHVQESYTKDLDFKVNKSKQKLECQDIINKHYMEVNSNEKESCDQILDSYKVVKKRKKESSCKAKNILTKAKNKLASQLTESSQTSISLESDLKHITSEADSDPGNPVELCKTQKQSTTTLNKKDLPFVEEIKEGECQVKKVNKMTSKSKKRKTSIDPSPESHEVMERILDSVQGKSTVSEQADKENNLENEKMVKNKPDFYTKAFRSLSEIHSPNIQDSSFDSVREGLVPLSVSSGKNVIIKENFALECSPAFQVSDDEHEKMNKMKFKVNRRTQKSGIGDRPLQDLSNTSFVSNNTAESENKSEDLSSERTSRRRRCTPFYFKEPSLRDKMRR

Variants of: B1
Conditions: with pp1a_human PPP1CA
In the case of N58I, the “effect of a mutation on the interaction” value is reported as “disrupting interaction”.

Variants of: B1
Conditions: with md2l1_human MAD2L1, Q13257
Chain of md2l1_human MAD2L1, Q13257 (Q13257 whole entry): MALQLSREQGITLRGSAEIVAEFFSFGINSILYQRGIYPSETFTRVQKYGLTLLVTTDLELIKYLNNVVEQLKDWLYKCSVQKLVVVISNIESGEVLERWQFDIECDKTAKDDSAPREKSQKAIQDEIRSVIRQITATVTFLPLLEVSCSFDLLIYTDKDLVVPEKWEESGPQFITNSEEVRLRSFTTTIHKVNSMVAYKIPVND
With R153A the “effect of a mutation on the interaction” value was “disrupting interaction”.
